Target: purified wild-type N1 (C-terminal His tag) (vaccinia virus) (UniProt P17361)
Experiment: SEC-MALS

Substance: purified wild-type N1 (C-terminal His tag) (from UniProt P17361) (natural protein)
- stoichiometry N: 2

— paper PMC3240604
